Measured values as given in PMC7141386, “Extracellular CIRP induces macrophage endotoxin tolerance through IL-6R–mediated STAT3 activation” (JCI Insight, 2020).

T1: recombinant human IL-6R alpha protein Leu20-Asp358 (human, UniProt P08887 20-358)
T1 construct: human IL-6 receptor alpha, Leu20-Asp358; no tags in the Biacore assay; also called rhIL-6R; IL-6 receptor; source: bought: R&D Systems, Bio-Techne; Spodoptera frugiperda Sf21, baculovirus-derived
T1 sequence (looked up): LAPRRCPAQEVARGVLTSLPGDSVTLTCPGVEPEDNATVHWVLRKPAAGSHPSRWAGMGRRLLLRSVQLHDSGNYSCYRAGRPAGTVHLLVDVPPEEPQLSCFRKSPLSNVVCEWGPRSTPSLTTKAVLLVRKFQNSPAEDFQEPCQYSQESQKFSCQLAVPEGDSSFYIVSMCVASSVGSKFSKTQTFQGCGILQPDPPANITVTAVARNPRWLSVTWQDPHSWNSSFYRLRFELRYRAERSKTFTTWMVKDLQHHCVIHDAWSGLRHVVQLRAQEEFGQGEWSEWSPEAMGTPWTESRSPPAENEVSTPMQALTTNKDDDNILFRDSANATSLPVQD

T2: mouse IL-6 receptor on peritoneal macrophages (mouse (endogenous in peritoneal …, UniProt P22272 20-460))
T2 construct: IL-6 receptor alpha, mouse, endogenous on peritoneal macrophages, detected with goat anti-mouse IL-6R antibody; also called IL-6Rα; source: endogenous, on murine peritoneal macrophages
T2 sequence (looked up): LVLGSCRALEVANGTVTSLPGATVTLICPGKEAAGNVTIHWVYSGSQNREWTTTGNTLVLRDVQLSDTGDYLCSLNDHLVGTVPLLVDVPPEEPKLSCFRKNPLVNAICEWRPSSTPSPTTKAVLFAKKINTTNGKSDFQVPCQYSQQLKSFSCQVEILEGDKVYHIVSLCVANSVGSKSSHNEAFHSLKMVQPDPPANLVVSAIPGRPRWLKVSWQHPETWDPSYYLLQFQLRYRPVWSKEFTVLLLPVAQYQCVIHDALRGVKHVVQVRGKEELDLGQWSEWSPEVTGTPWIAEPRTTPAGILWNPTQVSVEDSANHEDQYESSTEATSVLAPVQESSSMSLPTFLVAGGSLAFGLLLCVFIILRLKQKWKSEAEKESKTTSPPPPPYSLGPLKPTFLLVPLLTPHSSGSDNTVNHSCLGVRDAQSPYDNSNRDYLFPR


How the values were obtained:
[1] = target: T1, recombinant human IL-6R alpha protein …; assay: SPR; Biacore 3000; rhIL-6R immobilised on a CM5 chip (amine coupling, 10 mM sodium acetate pH 4.5); rhCIRP as analyte 0-1.0 uM; 1x PBS with 0.01% Tween-20, pH 7.4; 30 uL/min, 25°C; global fit to the Langmuir model for 1:1 binding; conditions: both partners purified
[2] = target: T2, mouse IL-6 receptor on peritoneal …; assay: FRET or BRET; peritoneal macrophages in a 96-well plate treated with rmCIRP for 10 minutes at 4°C, fixed with 4% paraformaldehyde, stained with anti-CIRP and anti-IL-6R or anti-CD11b antibodies and Cy3- and Cy5-labelled secondary antibodies; FRET units from cell-associated fluorescence (Biotek Synergy Neo2); conditions: one partner purified

Kd [1]	fold increase in FRET units against the negative control CD11b [2]	Binder
98 nM	–	recombinant human CIRP (cold-inducible RNA-binding protein) (natural protein, UniProt Q14011 1-172, looked up, also called rhCIRP; eCIRP; source: bought: Origene) MASDEGKLFVGGLSFDTNEQSLEQVFSKYGQISEVVVVKDRETQRSRGFGFVTFENIDDAKDAMMAMNGKSVDGRQIRVDQAGKSSDNRSRGYRGGSAGGRGFFRGGRGRGRGFSRGGGDRGYGGNRFESRSGGYGGSRDYYSSRSQSGGYSDRSSGGSYRDSYDSYATHNE
–	17 fold	recombinant murine CIRP (cold-inducible RNA-binding protein) (natural protein, mouse, UniProt P60824 1-172, looked up, also called rmCIRP) MASDEGKLFVGGLSFDTNEQALEQVFSKYGQISEVVVVKDRETQRSRGFGFVTFENIDDAKDAMMAMNGKSVDGRQIRVDQAGKSSDNRSRGYRGGSAGGRGFFRGGRSRGRGFSRGGGDRGYGGGRFESRSGGYGGSRDYYASRSQGGSYGYRSSGGSYRDSYDSYATHNE
